Tested on: plasma proteins
Experiment: Plasma proteins modulated between baseline and day 28 in responders (CR, VGPR, PR; n = 19), Example 6 (Table 13)
Format: in vivo, human
Details: plasma protein (OLINK NPX); responders (CR, VGPR, PR; n = 19); itacitinib 200 mg or 300 mg QD with corticosteroids; day 28 vs baseline
How it was run: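 Plasma at baseline/screening and day 28 profiled for >1000 proteins by OLINK proximity extension assay, reported as NPX (log2). Steroid-naive and steroid-refractory patients pooled. Paired and unpaired t tests, ANOVA and Pearson correlation applied; significance at P<0.05.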

B1: SH2B3 (protein, UniProt Q9UQQ2 1-575, looked up)
SH2B adapter protein 3: MNGPALQPSSPSSAPSASPAAAPRGWSEFCELHAVAAARELARQYWLFAREHPQHAPLRAELVSLQFTDLFQRYFCREVRDGRAPGRDYRDTGRGPPAKAEASPEPGPGPAAPGLPKARSSEELAPPRPPGPCSFQHFRRSLRHIFRRRSAGELPAAHTAAAPGTPGEAAETPARPGLAKKFLPWSLAREPPPEALKEAVLRYSLADEASMDSGARWQRGRLALRRAPGPDGPDRVLELFDPPKSSRPKLQAACSSIQEVRWCTRLEMPDNLYTFVLKVKDRTDIIFEVGDEQQLNSWMAELSECTGRGLESTEAEMHIPSALEPSTSSSPRGSTDSLNQGASPGGLLDPACQKTDHFLSCYPWFHGPISRVKAAQLVQLQGPDAHGVFLVRQSETRRGEYVLTFNFQGIAKHLRLSLTERGQCRVQHLHFPSVVDMLHHFQRSPIPLECGAACDVRLSSYVVVVSQPPGSCNTVLFPFSLPHWDSESLPHWGSELGLPHLSSSGCPRGLSPEGLPGRSSPPEQIFHLVPSPEELANSLQHLEHEPVNRARDSDYEMDSSSRSHLRAIDNQYTPL
Fold Change, Decreased Expression from Baseline to Day 28: −1.7273

B2: TNFRSF11A (protein, UniProt Q9Y6Q6 30-616, looked up)
Tumor necrosis factor …: IAPPCTSEKHYEHLGRCCNKCEPGKYMSSKCTTTSDSVCLPCGPDEYLDSWNEEDKCLLHKVCDTGKALVAVVAGNSTTPRRCACTAGYHWSQDCECCRRNTECAPGLGAQHPLQLNKDTVCKPCLAGYFSDAFSSTDKCRPWTNCTFLGKRVEHHGTEKSDAVCSSSLPARKPPNEPHVYLPGLIILLLFASVALVAAIIFGVCYRKKGKALTANLWHWINEACGRLSGDKESSGDSCVSTHTANFGQQGACEGVLLLTLEEKTFPEDMCYPDQGGVCQGTCVGGGPYAQGEDARMLSLVSKTEIEEDSFRQMPTEDEYMDRPSQPTDQLLFLTEPGSKSTPPFSEPLEVGENDSLSQCFTGTQSTVGSESCNCTEPLCRTDWTPMSSENYLQKEVDSGHCPHWAASPSPNWADVCTGCRNPPGEDCEPLVGSPKRGPLPQCAYGMGLPPEEEASRTEARDQPEDGADGRLPSSARAGAGSGSSPGGQSPASGNVTGNSNSTFISSGQVMNFKGDIIVVYVSQTSQEGAAAAAEPMGRPVQEETLARRDSFAGNGPRFPDPCGGPEGLREPEKASRPVQEQGGAKA
Fold Change, Decreased Expression from Baseline to Day 28: −1.3519

B3: gal-8 (protein, UniProt O00214 1-317, looked up)
Galectin-8: MMLSLNNLQNIIYNPVIPFVGTIPDQLDPGTLIVIRGHVPSDADRFQVDLQNGSSMKPRADVAFHFNPRFKRAGCIVCNTLINEKWGREEITYDTPFKREKSFEIVIMVLKDKFQVAVNGKHTLLYGHRIGPEKIDTLGIYGKVNIHSIGFSFSSDLQSTQASSLELTEISRENVPKSGTPQLRLPFAARLNTPMGPGRTVVVKGEVNANAKSFNVDLLAGKSKDIALHLNPRLNIKAFVRNSFLQESWGEEERNITSFPFSPGMYFEMIIYCDVREFKVAVNGVHSLEYKHRFKELSSIDTLEINGDIHLLEVRSW
Fold Change, Decreased Expression from Baseline to Day 28: −1.3154

B4: GCNT1 (protein, UniProt Q02742 1-428, looked up)
Beta-1,3-galactosyl-O-glycosyl …: MLRTLLRRRLFSYPTKYYFMVLVLSLITFSVLRIHQKPEFVSVRHLELAGENPSSDINCTKVLQGDVNEIQKVKLEILTVKFKKRPRWTPDDYINMTSDCSSFIKRRKYIVEPLSKEEAEFPIAYSIVVHHKIEMLDRLLRAIYMPQNFYCIHVDTKSEDSYLAAVMGIASCFSNVFVASRLESVVYASWSRVQADLNCMKDLYAMSANWKYLINLCGMDFPIKTNLEIVRKLKLLMGENNLETERMPSHKEERWKKRYEVVNGKLTNTGTVKMLPPLETPLFSGSAYFVVSREYVGYVLQNEKIQKLMEWAQDTYSPDEYLWATIQRIPEVPGSLPASHKYDLSDMQAVARFVKWQYFEGDVSKGAPYPPCDGVHVRSVCIFGAGDLNWMLRKHHLFANKFDVDVDLFAIQCLDEHLRHKALETLKH
Fold Change, Decreased Expression from Baseline to Day 28: −1.3034

B5: TYMP (protein, UniProt P19971 11-482, looked up)
Thymidine phosphorylase: APPAPGDFSGEGSQGLPDPSPEPKQLPELIRMKRDGGRLSEADIRGFVAAVVNGSAQGAQIGAMLMAIRLRGMDLEETSVLTQALAQSGQQLEWPEAWRQQLVDKHSTGGVGDKVSLVLAPALAACGCKVPMISGRGLGHTGGTLDKLESIPGFNVIQSPEQMQVLLDQAGCCIVGQSEQLVPADGILYAARDVTATVDSLPLITASILSKKLVEGLSALVVDVKFGGAAVFPNQEQARELAKTLVGVGASLGLRVAAALTAMDKPLGRCVGHALEVEEALLCMDGAGPPDLRDLVTTLGGALLWLSGHAGTQAQGAARVAAALDDGSALGRFERMLAAQGVDPGLARALCSGSPAERRQLLPRAREQEELLAPADGTVELVRALPLALVLHELGAGRSRAGEPLRLGVGAELLVDVGQRLRRGTPWLRVHRDGPALSGPQSRALQEALVLSDRAPFAAPSPFAELVLPPQQ
Fold Change, Decreased Expression from Baseline to Day 28: −1.7313

B6: EGLN1 (protein, UniProt Q9GZT9 2-426, looked up)
Egl nine homolog 1: ANDSGGPGGPSPSERDRQYCELCGKMENLLRCSRCRSSFYCCKEHQRQDWKKHKLVCQGSEGALGHGVGPHQHSGPAPPAAVPPPRAGAREPRKAAARRDNASGDAAKGKVKAKPPADPAAAASPCRAAAGGQGSAVAAEAEPGKEEPPARSSLFQEKANLYPPSNTPGDALSPGGGLRPNGQTKPLPALKLALEYIVPCMNKHGICVVDDFLGKETGQQIGDEVRALHDTGKFTDGQLVSQKSDSSKDIRGDKITWIEGKEPGCETIGLLMSSMDDLIRHCNGKLGSYKINGRTKAMVACYPGNGTGYVRHVDNPNGDGRCVTCIYYLNKDWDAKVSGGILRIFPEGKAQFADIEPKFDRLLFFWSDRRNPHEVQPAYATRYAITVWYFDADERARAKVKYLTGEKGVRVELNKPSDSVGKDVF
Fold Change, Decreased Expression from Baseline to Day 28: −1.3184

B7: STK4 (protein, UniProt Q13043 1-487, looked up)
Serine/threonine-protein …: METVQLRNPPRRQLKKLDEDSLTKQPEEVFDVLEKLGEGSYGSVYKAIHKETGQIVAIKQVPVESDLQEIIKEISIMQQCDSPHVVKYYGSYFKNTDLWIVMEYCGAGSVSDIIRLRNKTLTEDEIATILQSTLKGLEYLHFMRKIHRDIKAGNILLNTEGHAKLADFGVAGQLTDTMAKRNTVIGTPFWMAPEVIQEIGYNCVADIWSLGITAIEMAEGKPPYADIHPMRAIFMIPTNPPPTFRKPELWSDNFTDFVKQCLVKSPEQRATATQLLQHPFVRSAKGVSILRDLINEAMDVKLKRQESQQREVDQDDEENSEEDEMDSGTMVRAVGDEMGTVRVASTMTDGANTMIEHDDTLPSQLGTMVINAEDEEEEGTMKRRDETMQPAKPSFLEYFEQKEKENQINSFGKSVPGPLKNSSDWKIPQDGDYEFLKSWTVEDLQKRLLALDPMMEQEIEEIRQKYQSKRQPILDAIEAKKRRQQNF
Fold Change, Decreased Expression from Baseline to Day 28: −1.8393

B8: WASF1 (protein, UniProt Q92558 1-559, looked up)
Actin-binding protein WASF1: MPLVKRNIDPRHLCHTALPRGIKNELECVTNISLANIIRQLSSLSKYAEDIFGELFNEAHSFSFRVNSLQERVDRLSVSVTQLDPKEEELSLQDITMRKAFRSSTIQDQQLFDRKTLPIPLQETYDVCEQPPPLNILTPYRDDGKEGLKFYTNPSYFFDLWKEKMLQDTEDKRKEKRKQKQKNLDRPHEPEKVPRAPHDRRREWQKLAQGPELAEDDANLLHKHIEVANGPASHFETRPQTYVDHMDGSYSLSALPFSQMSELLTRAEERVLVRPHEPPPPPPMHGAGDAKPIPTCISSATGLIENRPQSPATGRTPVFVSPTPPPPPPPLPSALSTSSLRASMTSTPPPPVPPPPPPPATALQAPAVPPPPAPLQIAPGVLHPAPPPIAPPLVQPSPPVARAAPVCETVPVHPLPQGEVQGLPPPPPPPPLPPPGIRPSSPVTVTALAHPPSGLHPTPSTAPGPHVPLMPPSPPSQVIPASEPKRHPSTLPVISDARSVLLEAIRKGIQLRKVEEQREQEAKHERIENDVATILSRRIAVEYSDSEDDSEFDEVDWLE
Fold Change, Decreased Expression from Baseline to Day 28: −1.5354

B9: ESM-1 (protein, UniProt Q9NQ30 20-184, looked up)
Endothelial cell-specific …: WSNNYAVDCPQHCDSSECKSSPRCKRTVLDDCGCCRVCAAGRGETCYRTVSGMDGMKCGPGLRCQPSNGEDPFGEEFGICKDCPYGTFGMDCRETCNCQSGICDRGTGKCLKFPFFQYSVTKSSNRFVSLTEHDMASGDGNIVREEVVKENAAGSPVMRKWLNPR
Fold Change, Decreased Expression from Baseline to Day 28: −1.4178

B10: SNAP29 (protein, UniProt O95721 1-258, looked up)
Synaptosomal-associated …: MSAYPKSYNPFDDDGEDEGARPAPWRDARDLPDGPDAPADRQQYLRQEVLRRAEATAASTSRSLALMYESEKVGVASSEELARQRGVLERTEKMVDKMDQDLKISQKHINSIKSVFGGLVNYFKSKPVETPPEQNGTLTSQPNNRLKEAISTSKEQEAKYQASHPNLRKLDDTDPVPRGAGSAMSTDAYPKNPHLRAYHQKIDSNLDELSMGLGRLKDIALGMQTEIEEQDDILDRLTTKVDKLDVNIKSTERKVRQL
Fold Change, Decreased Expression from Baseline to Day 28: −1.6325

B11: CLEC4D (protein, UniProt Q8WXI8 1-215, looked up)
C-type lectin domain family 4 …: MGLEKPQSKLEGGMHPQLIPSVIAVVFILLLSVCFIASCLVTHHNFSRCKRGTGVHKLEHHAKLKCIKEKSELKSAEGSTWNCCPIDWRAFQSNCYFPLTDNKTWAESERNCSGMGAHLMTISTEAEQNFIIQFLDRRLSYFLGLRDENAKGQWRWVDQTPFNPRRVFWHKNEPDNSQGENCVVLVYNQDKWAWNDVPCNFEASRICKIPGTTLN
Fold Change, Decreased Expression from Baseline to Day 28: −1.7084

B12: SIGLEC6 (protein, UniProt O43699 27-453, looked up)
Sialic acid-binding Ig-like …: QERRFQLEGPESLTVQEGLCVLVPCRLPTTLPASYYGYGYWFLEGADVPVATNDPDEEVQEETRGRFHLLWDPRRKNCSLSIRDARRRDNAAYFFRLKSKWMKYGYTSSKLSVRVMALTHRPNISIPGTLESGHPSNLTCSVPWVCEQGTPPIFSWMSAAPTSLGPRTTQSSVLTITPRPQDHSTNLTCQVTFPGAGVTMERTIQLNVSYAPQKVAISIFQGNSAAFKILQNTSSLPVLEGQALRLLCDADGNPPAHLSWFQGFPALNATPISNTGVLELPQVGSAEEGDFTCRAQHPLGSLQISLSLFVHWKPEGRAGGVLGAVWGASITTLVFLCVCFIFRVKTRRKKAAQPVQNTDDVNPVMVSGSRGHQHQFQTGIVSDHPAEAGPISEDEQELHYAVLHFHKVQPQEPKVTDTEYSEIKIHK
Fold Change, Decreased Expression from Baseline to Day 28: −1.9024
